The text below walks through data of publication PMC5487319 (Scientific Reports, 2017).

Where a SMILES comes first, the peptide text is derived from it. The star is where a group is joined. HYNIC = NNc1ccc(C(=O)*)cn1

One data set in a line: in vivo. To be noted: male, BALB/c-nude, mouse, iv, 11.1 MBq, total radioactivity.
The subject of another data set is A549 xenograft tumors. Nature of the data set: Therapeutic evaluation of ^188Re-peptides on A549 tumors. Type of data set: in vivo, mice. The settings on record: 18.5 MBq i.v. at the first and seventh day. The procedure:
Sixty mice were randomly separated into 6 groups once the tumor volumes reached approximately 0.1 cm^3: saline group, ^188ReO4 ^− group (18.5 MBq), non-labeled peptide group (4 μg per mouse) and ^188Re-labeled peptide group (18.5 MBq, 4 μg peptide per mouse) (n = 10). All drugs were administered i.v at the first and seventh day. Tumor size was determined weekly by measuring the length, width, and depth of the tumor using a caliper. Tumor volume was calculated as follows: tumor volume = (length × width × depth) × π/6. The mice were abandoned once dead or body weight loss was more than 20%.
At the end of the therapeutic period, mice were sacrificed, and the tumors were collected and fixed in 4% paraformaldehyde (PFA). Routine hematoxylin and eosin (H&E) staining and TdT-mediated dUTP nick-end labeling (TUNEL) staining were performed for necrosis and apoptosis analysis according to the manufacturer’s instructions.

Data set [1] has as its system A549 tumor-bearing nude mice. Nature of the data set: SPECT planar imaging. The settings on record: intravenous administration, 2 hour.
Experimental: (§1) Five-week-old male BALB/c-nude mice were used for preparation of the xenograft tumor models. An A549 lung carcinoma-bearing model was established by subcutaneous injection of A549 cells at a concentration of 5 × 10^6 cells/mouse into the right front flank of the mice.
(§2) SPECT planar imaging was performed when the tumor volume was approximately 1 cm^3. The mice were anesthetized and placed in a supine position. Planar imaging was performed using a low-energy collimator at an energy peak of 140 keV at the indicated time after ^99mTc-labeled peptide (11.1 MBq, 150 μL) injection. The main imaging acquisition parameters were as follows: 128 × 128 matrix, window-width 20%, zoom 2.0, acquisition time 10 min. […] Then, 100,000 counts were acquired per image at each time indicated after the injection. For the blocking study, an excessive amount of HYNIC-peptide or EC-peptide (500 μg/mouse) was injected 30 min prior to radiolabeled peptide injection.
The next data set has as its target VEGFR-1 (Homo sapiens, UniProt P17948). As to the kind of experiment: Co-immunoprecipitation of GST-peptide and VEGFR-1. Type of data set: binding. To be noted: A549 cells, GST-peptide 80 or 185 nmol/L, 12 h, anti-GST or anti-VEGFR-1 antibody, Western blot. The procedure:
GST-peptide was prepared and purified as previously described. Briefly, pGEX4T-1-peptide plasmid was obtained by peptide gene insertion into pGEX4T-1. Then, the plasmids were transfected into E. coli BL21 (DE3)-competent cells. Subsequently, GST-peptide fusion proteins were collected and purified by Glutathione Sepharose 4B. The obtained proteins were identified by protein electrophoresis.
A549 cells were seeded in 75 cm^2 bottles (1 × 10^4 counts/mL). After 24 h, GST-QKRKRKKSRKKH (80 nmol/L) or GST–RKRKRKKSRYIVLS (185 nmol/L) protein was added, respectively. After 12 h, the culture medium was removed and the cells were washed by PBS and then spalled with IP lysis buffer containing protease inhibitor (4 °C, 30 min). The protein concentration was determined with BCA methods. Protein (600 μg) from supernatant was used for immunoprecipitation (IP) assays with 1 μg anti-GST antibody or 1 μg anti-VEGFR-1 antibody in a reversed Co-IP experiment, while IgG served as the negative group. After washing 3× by TBST, IgG-HRP was added, shaking 2 h at RT, and last for enhanced chemiluminescence imaging.
(In general: Immunoblotting shows a protein as a band on a membrane.)

The target in the next data set is VEGFR (UniProt P17948 27-1338). Nature of the data set: radioligand binding; receptor competition binding with 125I-VEGF165, peptide concentration varied; details in ref. 28.
Chain of VEGFR (P17948 27-1338): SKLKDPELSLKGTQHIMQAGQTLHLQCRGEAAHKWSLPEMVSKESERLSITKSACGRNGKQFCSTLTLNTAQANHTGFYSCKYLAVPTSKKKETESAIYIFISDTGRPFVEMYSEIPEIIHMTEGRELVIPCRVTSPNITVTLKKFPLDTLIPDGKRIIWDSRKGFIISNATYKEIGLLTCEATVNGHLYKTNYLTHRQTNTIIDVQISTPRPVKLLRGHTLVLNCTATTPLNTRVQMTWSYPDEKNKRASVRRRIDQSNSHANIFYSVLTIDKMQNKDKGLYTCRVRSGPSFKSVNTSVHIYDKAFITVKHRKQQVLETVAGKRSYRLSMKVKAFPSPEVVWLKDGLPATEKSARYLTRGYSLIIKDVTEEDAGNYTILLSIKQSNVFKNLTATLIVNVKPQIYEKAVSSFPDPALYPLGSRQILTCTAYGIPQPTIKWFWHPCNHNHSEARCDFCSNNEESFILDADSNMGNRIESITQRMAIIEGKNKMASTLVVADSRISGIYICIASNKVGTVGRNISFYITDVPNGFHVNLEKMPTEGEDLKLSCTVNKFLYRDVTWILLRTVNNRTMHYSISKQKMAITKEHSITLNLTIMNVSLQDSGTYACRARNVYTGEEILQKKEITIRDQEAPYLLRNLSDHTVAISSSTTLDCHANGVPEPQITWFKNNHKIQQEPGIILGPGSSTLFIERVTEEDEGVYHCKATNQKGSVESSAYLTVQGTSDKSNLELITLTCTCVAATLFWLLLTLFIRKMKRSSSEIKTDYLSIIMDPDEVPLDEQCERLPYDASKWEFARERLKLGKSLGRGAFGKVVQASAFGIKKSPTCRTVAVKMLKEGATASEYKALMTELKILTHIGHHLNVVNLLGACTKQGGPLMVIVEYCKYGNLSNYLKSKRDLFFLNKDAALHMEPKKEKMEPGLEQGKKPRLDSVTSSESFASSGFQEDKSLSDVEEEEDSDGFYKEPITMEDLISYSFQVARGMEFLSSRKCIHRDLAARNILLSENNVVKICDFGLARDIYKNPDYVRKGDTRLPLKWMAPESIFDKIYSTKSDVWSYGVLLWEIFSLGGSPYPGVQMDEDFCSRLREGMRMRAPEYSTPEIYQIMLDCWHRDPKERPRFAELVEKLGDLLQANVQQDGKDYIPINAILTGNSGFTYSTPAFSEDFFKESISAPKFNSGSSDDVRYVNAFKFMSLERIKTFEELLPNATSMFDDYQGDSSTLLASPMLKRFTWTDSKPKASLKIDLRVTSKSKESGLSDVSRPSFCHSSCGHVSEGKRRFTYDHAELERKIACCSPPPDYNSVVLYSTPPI

Chain of VEGFR-1 (P17948 27-656 limits assumed): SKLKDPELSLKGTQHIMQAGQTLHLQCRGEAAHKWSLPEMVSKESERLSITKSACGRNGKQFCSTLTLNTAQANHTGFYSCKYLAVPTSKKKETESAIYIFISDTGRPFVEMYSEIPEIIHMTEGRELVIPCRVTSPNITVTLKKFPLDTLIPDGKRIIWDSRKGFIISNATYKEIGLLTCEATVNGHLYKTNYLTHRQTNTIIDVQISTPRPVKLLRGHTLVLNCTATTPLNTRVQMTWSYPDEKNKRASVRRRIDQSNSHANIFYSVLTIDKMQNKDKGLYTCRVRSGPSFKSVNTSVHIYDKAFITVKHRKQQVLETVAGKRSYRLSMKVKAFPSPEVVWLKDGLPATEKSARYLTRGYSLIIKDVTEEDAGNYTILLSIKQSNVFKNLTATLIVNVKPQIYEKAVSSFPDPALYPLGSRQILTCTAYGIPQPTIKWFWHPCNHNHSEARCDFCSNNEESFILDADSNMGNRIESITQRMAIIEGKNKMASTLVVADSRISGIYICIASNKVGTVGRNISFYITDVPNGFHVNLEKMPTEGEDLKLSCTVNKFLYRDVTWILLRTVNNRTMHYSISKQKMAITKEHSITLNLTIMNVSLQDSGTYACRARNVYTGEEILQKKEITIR
Experimental for in vivo: as §1, §2

As to `N=C(N)NCCC[C@H](NC(=O)[C@H](CCCCN)NC(=O)[C@H](CCC(N)=O)NC(=O)c1ccc(NN)nc1)C(=O)N[C@@H](CCCCN)C(=O)N[C@@H](CCCNC(=N)N)C(=O)N[C@@H](CCCCN)C(=O)N[C@@H](CCCCN)C(=O)N[C@@H](CO)C(=O)N[C@@H](CCCNC(=N)N)C(=O)N[C@@H](CCCCN)C(=O)N[C@@H](CCCCN)C(=O)N[C@@H](Cc1c[nH]cn1)C(=O)O` (99mTc complex, metal not drawn) [^99mTc-HYNIC-QKRKRKKSRKKH] ({HYNIC}-QKRKRKKSRKKH-OH), in “in vivo”, the tissue to tissue ratio at 0.5 h is 1.53, the tissue to tissue ratio at 1 h was 3.42, the tissue to tissue ratio at 2 h came to 4.31 and the tissue to tissue ratio at 4 h was 2.62.
`CC[C@H](C)[C@H](NC(=O)[C@H](Cc1ccc(O)cc1)NC(=O)[C@H](CCCNC(=N)N)NC(=O)[C@H](CO)NC(=O)[C@H](CCCCN)NC(=O)[C@H](CCCCN)NC(=O)[C@H](CCCNC(=N)N)NC(=O)[C@H](CCCCN)NC(=O)[C@H](CCCNC(=N)N)NC(=O)[C@H](CCCCN)NC(=O)[C@H](CCCNC(=N)N)NC(=O)c1ccc(NN)nc1)C(=O)N[C@H](C(=O)N[C@@H](CC(C)C)C(=O)N[C@@H](CO)C(=O)O)C(C)C` (99mTc complex, metal not drawn) [^99mTc-HYNIC-RKRKRKKSRYIVLS] ({HYNIC}-RKRKRKKSRYIVLS-OH): in the data set “in vivo”, the tissue to tissue ratio at 0.5 h is 4.05, the tissue to tissue ratio at 1 h was found to be 4.02, the tissue to tissue ratio at 2 h worked out at 3.76 and the tissue to tissue ratio at 4 h turned out to be 2.86.
For `[Na+].[O]=[188Re](=[O])(=[O])[O-]` [Na^188ReO4], the “A549 tumor volume growth” value with A549 xenograft tumors (compared with the saline group, n = 10) is “inhibited the tumor volume growth”. Further, in the data set on A549 xenograft tumors (end of the therapeutic period), the “apoptosis in non-necrotic tumor areas (TUNEL staining)” value was “no significant difference in necrosis or apoptosis” and the “necrotic regions in tumor tissue (HE staining)” value is given as “no significant difference in necrosis or apoptosis”. The “survival of A549 tumor-bearing nude mice” value with A549 xenograft tumors (n = 10) is “did not improve the survival duration”. Further, the “distribution of radioactivity on SPECT planar imaging” value in data set [1] was “Large amount of radioactivity was observed in thyroids and stomach”.
For the molecule “GST-QKRKRKKSRKKH [GST-peptide fusion protein from E. coli BL21 (DE3)]”, the “binding to VEGFR-1 by Co-IP and reversed Co-IP” value on VEGFR-1 is “could bind to VEGFR-1”.
As for “GST-RKRKRKKSRYIVLS [GST-peptide fusion protein from E. coli BL21 (DE3)]”, at VEGFR-1, the “binding to VEGFR-1 by Co-IP and reversed Co-IP” value is “could combined to VEGFR-1”.

B1: QKRKRKKSRKKH (peptide)
peptide: QKRKRKKSRKKH
notes: core motif RKRKKSR kept; also called non-labeled peptide; source: synthetic peptide (ChinaPeptides Co., Ltd., SPPS, HPLC purified)
Turning to B1, in the data set with VEGFR, the IC50 – broadly, the concentration at which inhibition is half-maximal – turned out to be 79.8 nM.

B2: RKRKRKKSRYIVLS (peptide)
peptide: RKRKRKKSRYIVLS
notes: as for B1
For the molecule B2, in the data set with VEGFR, the IC50 worked out at 185 nM.

B3: VEGF_(125-136) (peptide)
peptide: QKRKRKKSRYKS
notes: source: synthetic peptide (ChinaPeptides Co., Ltd., SPPS, HPLC purified)
The molecule B3 gave a concentration for half-maximal inhibition (IC50) in the data set with VEGFR of 464 nM.
